Data on 79 sequences can be found in the supplement of paper PMC10126150.

± gives the standard deviation of the averaged measurements.
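Further: ATP exposure 15 min at 22 °C before imaging.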

This data set relates to ATP. The experiment in a line: switch fluorescence ratio, 500 uM ATP over buffer (Cy3 cluster intensity, sum of 5 cycles each) (fold (ratio)); higher = stronger signal-on switching upon ATP binding; sequences stand for … in TCGTCGGCAGCGTCAGATGTGTATAAGAGACAGTTTTTTTTTTTTTTTTTTTTTTTTT…TC. The conditions noted are these: aptamer strand: ATP DNA aptamer (quencher-CACCTGGGGGAGTATTGCGGAGGAAGG + anchor), 100 nM annealed; ATP concentration: 500 uM. Summed up:
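After annealing to 100 nM quencher-labelled ATP aptamer, Cy3-labelled switching-strand clusters on a modified Illumina MiSeq flow-cell were imaged in selection buffer. A second image followed after 15 min with 500 uM ATP at 22 °C, and five such buffer/ATP cycles were done, each separated by NaOH stripping and re-annealing. The fluorescence ratio, averaged per switch-domain sequence, is summed target-cycle over summed buffer-cycle Cy3 intensity per cluster, with clusters outside 100-1000 RFU excluded.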
Regarding AGTATAGCGA, the switch fluorescence ratio amounted to 1.01 ± 0.035.
Next, TATACCATTA: 0.997 ± 0.051; TGATGGGGTT: 0.9969 ± 0.0078.
Next, TTGTGGGTCC: 1.013 ± 0.0093.
For ACGGTAACGC the value was 1.02 ± 0.011.
In the case of AAAATATGTG, the switch fluorescence ratio is 1.02 ± 0.062.
Next, TGGGGTTCAT: 0.985 ± 0.025; GAGGGTGGCC: 1.03 ± 0.031; TAAGGGAGTA: 1.004 ± 0.0065.
Next, TCGTTTAGGT: 0.977 ± 0.026; GTGGTAGTGG: 0.949 ± 0.023; ACTCAGTTCT: 1.03 ± 0.016.
For CAAAAGATGT the value was 1.01 ± 0.05.
Turning to TTTCAATTAA, the switch fluorescence ratio was found to be 1 ± 0.013.
For GCGTCTGGGG the value was 1.019 ± 0.0046; for AGATTGGTTA, 0.992 ± 0.021; for TTTGCAGGCA, 1.03 ± 0.011.
For CAAGAGTGGG the value was 1.01 ± 0.032; for GGGTTAAATG, 0.989 ± 0.028.
For GGGGCAGGTT the value was 0.977 ± 0.038; for CCGAGGGTG, 1.81 ± 0.098; for GGGGAATCTA, 0.997 ± 0.022.
On to ACAGCTCGAG, for which the switch fluorescence ratio came to 1 ± 0.02.
For CGATATGTTT the value was 1.01 ± 0.079.
On to GCGCTGGCGG, for which the switch fluorescence ratio worked out at 1.01 ± 0.024.
On to CGGCGCGCTG, for which the switch fluorescence ratio was 0.997 ± 0.034.
For GGGGGGTTCA, the switch fluorescence ratio stood at 1.01 ± 0.026.
Take AAAACCTTGG: the switch fluorescence ratio came to 1.05 ± 0.021.
Next, TTCCTCCCCC: 1.94 ± 0.68.
AACTCTCGGG: the switch fluorescence ratio is 1 ± 0.014.
For GAGTGGGGAT the value was 1.02 ± 0.021; for TTGTTTGGTA, 1 ± 0.013; for TCGCATGTCT, 1.11 ± 0.098.
In the case of GGAGTCATGA, the switch fluorescence ratio was 0.982 ± 0.04.
Next, GCTTCCGAGA: 1.87 ± 0.05.
For ACGTACGGGT the value was 1.46 ± 0.12.
For TGAGCGTGAG the value was 1.01 ± 0.015; for AAAAAAGGGG, 1.87 ± 1.5.
For the sequence AGACTTTAAA, the switch fluorescence ratio is 1.01 ± 0.019.
As to CAGTCACTTG, the switch fluorescence ratio amounted to 1.01 ± 0.029.
For the sequence AAACAAAAGT, the switch fluorescence ratio is 1.01 ± 0.037.
As to TCTGCGTAAG, the switch fluorescence ratio came out at 1.003 ± 0.0065.
Next, TTTATGGGTT: 0.985 ± 0.018.
For GGGGAACGGG the value was 1 ± 0.027; for TGAAGAAAGT, 0.998 ± 0.032.
Take GAAAGAGGGG: the switch fluorescence ratio amounted to 0.989 ± 0.021.
Next, TGGGGGCACA: 1.0343 ± 0.00026; AAAATTGACT: 1.002 ± 0.003.
For TTGTAGGGGG the value was 1.17 ± 0.4; for GATTGCTCGT, 0.975 ± 0.028; for TTATAACCTG, 1.02 ± 0.037.
Next, TTTATGGCTT: 1.01 ± 0.046; GACAGCAAAT: 1.406 ± 0.0043.
Take TTAGTTATAT: the switch fluorescence ratio stood at 1.013 ± 0.0099.
For AAACGCATCT the value was 1.1304 ± 0.0008; for AGGGCATCGG, 1.021 ± 0.0044.
As for AGGATACTGG, the switch fluorescence ratio worked out at 0.975 ± 0.031.
For ATTGAATATT the value was 0.9935 ± 0.0015; for CAGGGTGATA, 1.06 ± 0.071.
Next, GGGGCCGTAA: 0.992 ± 0.025; CGATAGGCGT: 0.9927 ± 0.0032; GGGGTTTACG: 1 ± 0.039.
For TGGGGCCTGT the value was 0.978 ± 0.023; for ATATCGTTCG, 1.02 ± 0.054.
For the sequence GTTTACTTAT, the switch fluorescence ratio amounted to 1.037 ± 0.0024.
For GGGAACGGGT the value was 1 ± 0.035; for TTTCTGTGTT, 1.012 ± 0.0069; for GGGTCATGAT, 1.01 ± 0.021.
For CACGGTTTCT the value was 1.09 ± 0.13.
For AAATTAGTG the value was 1.05 ± 0.059; for AATCATGTTG, 0.981 ± 0.033; for GGTCATTGGA, 1.09 ± 0.064.
TTCTTATAGA: the switch fluorescence ratio was 1.0069 ± 1.4e-05.
Next, AAAAGCGGGT: 0.997 ± 0.023.
For ATGATAGGGG the value was 0.998 ± 0.023; for AACTAAGGGA, 0.9949 ± 0.0068; for TAATTCGCGA, 1.15 ± 0.034.
Next, CCGTTTTGAA: 0.981 ± 0.057; TGTTTTCGGA: 1.01 ± 0.012.
